In US20060134740A1:
The star is where a group is joined. AMC = Cc1cc(=O)oc2cc(N*)ccc12

What was measured:
[1] = target: fusion of the pR8 prodomain onto the N-terminus of the 56 amino acid B domain (GB) of streptococcal Protein G, P06654
[2] = target: subtilisin BPN' mutant S149 (Bacillus amyloliquefaciens) (UniProt P00782); assay: transient state kinetics with fluorogenic substrates
[3] = target: subtilisin BPN' mutant S149 (Bacillus amyloliquefaciens) (UniProt P00782); assay: transient state kinetics with fluorogenic substrate

Binder | cleavage of the fusion protein [1] | fold preference over sDVRAF-AMC [2] [fold] | Ks [3] [µM]
wild type subtilisin BPN' (protein) AQSVPYGVSQIKAPALHSQGYTGSNVKVAVIDSGIDSSHPDLKVAGGASMVPSETNPFQDNNSHGTHVAGTVAALNNSIGVLGVAPSASLYAVKVLGADGSGQYSWIINGIEWAIANNMDVINMSLGGPSGSAALKAAVDKAVASGVVVVAAAGNEGTSGSSSTVGYPGKYPSVIAVGAVDSSNQRASFSSVGPELDVMAPGVSIQSTLPGNKYGAYNGTSMASPHVAGAAALILSKHPNWTNTQVRSSLENTTTKLGDSFYYGKGLINVQAAAQ | The fusion protein was rapidly and specifically cleaved to release GB from pR8 | – | –
{code s}-DFRAM-{AMC} [fluorogenic pentapeptide substrate sDFRAM-AMC] | – | 5 | 1
{code s}-DVRAF-{AMC} [fluorogenic substrate sDVRAF-AMC] | – | – | 5
